Experimental data from patent publication US20170247475A1 (Boehringer Ingelheim, published 2017).
Read-outs that look alike come from different tables or passages of the source. Blank lines part the entries; values can stand above or below the binder they belong to.

How the values were obtained:
[1] = biological target: T1, recombinant human VEGF165 (human, UniProt P15692-4 27-191); assay: SPR Biacore T100, Two State Reaction model; KD = kd1/ka1 * (kd2/(kd2 + ka2))
T1 construct: also called hVEGF165; rhVEGF165
Protocol: (§1) Samples are injected for 2 min and allowed to dissociate up to 20 min at a flow rate of 45 μI/min. In between sample injections, the chip surface is regenerated with 100 mM HCl. HBS-EP+(Hepes buffer pH7.4+EDTA) is used as running buffer. Binding curves are fitted using a Two State Reaction model by Biacore T100 Evaluation Software v2.0.1.
(§2) ^{(a)}KD = kd1/kₐ₁ * (kd2/(kd2 + kₐ₂)) ^{(b)}Curves are fitted using a Two State Reaction model by Biacore T100 Evaluation Software v2.0.1

human VEGF-B = biological target: T2, human VEGF-B (human, UniProt P49765-2 22-188, limits assumed); assay: binding ELISA on coated VEGFB
T2 construct: also called hVEGF-B
T2 sequence (looked up): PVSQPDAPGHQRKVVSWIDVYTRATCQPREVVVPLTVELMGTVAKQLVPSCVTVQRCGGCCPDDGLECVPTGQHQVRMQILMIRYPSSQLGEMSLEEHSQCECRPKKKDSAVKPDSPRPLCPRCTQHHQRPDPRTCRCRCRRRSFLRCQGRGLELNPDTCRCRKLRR
Protocol: (§3) Binding to VEGFB, VEGFC, VEGFD and PIGF is assessed via a solid phase binding ELISA. In brief, VEGFB, VEGFC, VEGFD and PIGF (R&D Systems, Minneapolis, Minn., USA) are coated overnight at 4° C. at 1 μg/mL in a 96-well MaxiSorp plate (Nunc, Wiesbaden, Germany). Wells are blocked with a casein solution (1% in PBS). […] As positive controls serial dilutions of the appropriate receptors are taken along and detected with horseradish peroxidase (HRP)-conjugated goat anti-human IgG, Fc specific antibody (Jackson Immuno Research Laboratories Inc., West Grove, Pa., USA) and a subsequent enzymatic reaction in the presence of the substrate TMB (3,3′,5,5′-tetramentylbenzidine) (Pierce, Rockford, Ill., USA).

[2] = biological target: T1, recombinant human VEGF165; assay: SPR Biacore T100, hVEGF165 on chip, Two State Reaction model
Protocol: as §1, §2

[3] = biological target: T1, recombinant human VEGF165; assay: binding ELISA, coated rhVEGF165
human PIGF = biological target: T3, human PIGF (human, UniProt P49763-2 21-149, limits assumed); assay: binding ELISA on coated PIGF
T3 construct: also called hPIGF; PLGF
T3 sequence (looked up): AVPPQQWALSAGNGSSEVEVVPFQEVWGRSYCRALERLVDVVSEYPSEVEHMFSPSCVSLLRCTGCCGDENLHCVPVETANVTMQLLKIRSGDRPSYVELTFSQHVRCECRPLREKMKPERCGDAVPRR
Protocol: as §3

VEGF [4] = assay: cell-based or functional assay
[5] = biological target: T1, recombinant human VEGF165; assay: VEGF165/hVEGFR1-Fc competition AlphaScreen
Protocol: (§4) Finally, streptavidin donor beads (20 μg/ml) are added and after 1 hour of incubation in the dark, fluorescence is measured on the Envision microplate reader.

[6] = biological target: T1, recombinant human VEGF165; assay: ka1; SPR Biacore T100, hVEGF165 on chip, Two State Reaction model
Protocol: as §1, §2

[7] = biological target: T1, recombinant human VEGF165; assay: VEGF/VEGFR2 competition AlphaScreen
Protocol: as §4

human VEGF-C = biological target: T4, human VEGF-C (human, UniProt P49767 103-227); assay: binding ELISA on coated VEGFC
T4 construct: also called hVEGF-C
T4 sequence (looked up): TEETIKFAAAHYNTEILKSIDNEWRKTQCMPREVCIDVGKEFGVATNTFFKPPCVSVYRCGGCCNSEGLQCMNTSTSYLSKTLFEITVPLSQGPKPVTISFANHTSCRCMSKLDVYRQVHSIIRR
Protocol: as §3

[8] = biological target: T1, recombinant human VEGF165; assay: hVEGF165/hVEGFR2-Fc competition ELISA
[9] = biological target: T1, recombinant human VEGF165; assay: VEGF/VEGFR1 competition AlphaScreen
Protocol: as §4

[10] = biological target: T1, recombinant human VEGF165; assay: kd1; SPR Biacore T100, hVEGF165 on chip, Two State Reaction model
Protocol: as §1, §2

human VEGF-D = biological target: T5, human VEGF-D (human, UniProt O43915 93-201); assay: binding ELISA on coated VEGF D
T5 construct: also called hVEGF-D
T5 sequence (looked up): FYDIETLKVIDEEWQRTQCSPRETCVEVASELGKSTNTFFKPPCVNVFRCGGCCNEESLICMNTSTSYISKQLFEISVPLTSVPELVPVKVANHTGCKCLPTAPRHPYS
Protocol: as §3

[11] = biological target: T1, recombinant human VEGF165; assay: hVEGF165/hVEGFR2-Fc competition AlphaScreen
Protocol: as §4

[12] = biological target: T1, recombinant human VEGF165; assay: VEGF165/hVEGFR1-Fc competition ELISA
VEGF [13] = assay: cell-based or functional assay; remark: listed apart in the source
[14] = biological target: T6, recombinant human VEGF121 (human, UniProt P15692-9 27-147); assay: binding ELISA, coated rhVEGF121
T6 construct: also called rhVEGF121; hVEGF121
T6 sequence (looked up): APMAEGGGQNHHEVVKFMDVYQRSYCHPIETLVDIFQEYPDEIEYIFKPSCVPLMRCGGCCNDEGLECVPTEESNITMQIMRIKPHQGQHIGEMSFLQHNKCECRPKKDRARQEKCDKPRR
Protocol: Binding to recombinant human VEGF121 is assessed via a solid phase binding ELISA. Briefly, recombinant human VEGF121 (R&D Systems, Minneapolis, Minn., USA) is coated overnight at 4° C. at 1 μg/mL in a 96-well MaxiSorp plate (Nunc, Wiesbaden, Germany). Wells are blocked with a casein solution (1% in PBS).

[15] = biological target: T7, recombinant mouse VEGF164 (mouse, UniProt Q00731-2 27-190); assay: binding ELISA on coated mouse VEGF164
T7 construct: biotinylated in the mVEGFR2 AlphaScreen; also called rmVEGF164; mVEGF164
T7 sequence (looked up): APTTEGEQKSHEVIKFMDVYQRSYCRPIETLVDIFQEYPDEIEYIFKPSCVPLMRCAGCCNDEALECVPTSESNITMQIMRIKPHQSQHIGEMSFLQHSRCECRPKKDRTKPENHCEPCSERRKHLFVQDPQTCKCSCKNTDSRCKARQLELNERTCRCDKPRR
Protocol: Cross-reactivity to mouse VEGF164 is determined using a binding ELISA. […] Wells are blocked with a casein solution (1% in PBS). […] A mouse VEGF164 reactive mAb is included as positive control.

[16] = biological target: T1, recombinant human VEGF165; assay: Biacore on VEGF165 (Example 5.5)
Protocol: as §1

[17] = biological target: T1, recombinant human VEGF165; assay: VEGF165/VEGFR2 blocking AlphaScreen
VEGF [18] = assay: cell-based or functional assay; remark: listed apart in the source
hAng2 = biological target: T8, hAng2; assay: competition ELISA, blocking of hAng2 binding to hTie2
T8 construct: also called human Ang2
T8 chain: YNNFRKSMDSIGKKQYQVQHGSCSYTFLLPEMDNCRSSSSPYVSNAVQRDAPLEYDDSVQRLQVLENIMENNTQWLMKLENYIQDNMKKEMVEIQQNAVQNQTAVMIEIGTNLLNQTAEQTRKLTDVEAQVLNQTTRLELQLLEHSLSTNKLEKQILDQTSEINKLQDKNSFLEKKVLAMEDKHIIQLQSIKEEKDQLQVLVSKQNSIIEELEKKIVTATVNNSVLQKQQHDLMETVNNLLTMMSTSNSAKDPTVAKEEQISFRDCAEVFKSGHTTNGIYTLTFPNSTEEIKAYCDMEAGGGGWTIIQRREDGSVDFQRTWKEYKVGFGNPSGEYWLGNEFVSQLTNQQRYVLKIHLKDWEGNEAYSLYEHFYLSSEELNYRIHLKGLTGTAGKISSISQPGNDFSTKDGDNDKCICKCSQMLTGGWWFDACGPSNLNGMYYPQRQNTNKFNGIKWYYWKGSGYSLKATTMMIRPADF

mAng2 = biological target: T9, mAng2; assay: competition ELISA, blocking of mAng2 binding to mTie2
T9 construct: also called mouse Ang2
T9 chain: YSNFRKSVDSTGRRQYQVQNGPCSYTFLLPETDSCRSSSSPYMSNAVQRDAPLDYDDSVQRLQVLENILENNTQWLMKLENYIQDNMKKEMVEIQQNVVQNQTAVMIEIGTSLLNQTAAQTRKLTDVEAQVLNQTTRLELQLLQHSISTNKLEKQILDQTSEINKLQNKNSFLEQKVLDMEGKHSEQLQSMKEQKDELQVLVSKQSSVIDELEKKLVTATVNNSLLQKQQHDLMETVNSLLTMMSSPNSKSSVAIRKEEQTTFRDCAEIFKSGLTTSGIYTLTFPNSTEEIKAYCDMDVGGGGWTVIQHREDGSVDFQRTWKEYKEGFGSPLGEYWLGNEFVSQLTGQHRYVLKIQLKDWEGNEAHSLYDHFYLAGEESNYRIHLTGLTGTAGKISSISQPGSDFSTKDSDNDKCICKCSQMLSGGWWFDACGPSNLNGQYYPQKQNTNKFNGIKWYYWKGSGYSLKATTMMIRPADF

Kd [1]: 470 pM
binding result (human VEGF-B): no binding (tested: 5e-7 M)
ka2 [2]: 0.026 s⁻¹
kd2 [2]: 0.00028 s⁻¹
EC50 [3]: 320 pM
binding result (human PIGF): no binding (tested: 5e-7 M)
% inhibition, VEGF HUVEC Erk phosphorylation assay (VEGF [4]): 94%
IC50 (nM), VEGF HUVEC Erk phosphorylation assay (VEGF [4]): 0.23 nM
% inhibition [5]: 98%
IC50 [5]: 69 pM
kon [6]: 300000 M⁻¹ s⁻¹
IC50 [7]: 12 pM
binding result (human VEGF-C): no binding (tested: 5e-7 M)
% inhibition [8]: 100%
IC50 [8]: 292 pM
% inhibition [9]: 100%
IC50 [9]: 46 pM
koff [10]: 0.013 s⁻¹
binding result (human VEGF-D): no binding (tested: 5e-7 M)
% inhibition [11]: 100%
IC50 [11]: 50 pM
% inhibition [12]: 92%
IC50 [12]: 326 pM
% inhibition, VEGF HUVEC proliferation assay (VEGF [13]): 96%
IC50 (nM), VEGF HUVEC proliferation assay (VEGF [13]): 0.38 nM
EC50 [14]: 325 pM
binding result [15]: binds
B1: VEGFBII024 (VHH)
chain: EVQLVESGGGLVQTGDSLRLSCEVSGRTFSSYSMGWFRQAQGKEREFVVAISKGGYKYDSVSLEGRFTISKDNAKNTVYLQINSLKPEDTAVYYCASSRAYGSSRLRLADTYEYWGQGTQVTVSSGGGGSGGGGSGGGGSGGGGSGGGGSGGGGSGGGGSGGGGSEVQLVESGGGLVQAGGSLRLSCTASGSAFKSYRMGWFRRTPGKEDEFVASISWTYGSTFYADSVKGRFTMSRDKAKNAGYLQMNSLKPEDTALYYCAAGAQSDRYNIRSYDYWGQGTQVTVSS
notes: biparatopic bivalent VHH in one chain; also called VEGFBII23B04-40GS-86H09; VEGFBI024

Kd [16]: 270 pM
% inhibition [17]: 100%
IC50 [17]: 300 pM
% inhibition, VEGF HUVEC proliferation assay (VEGF [18]): 78%
IC50 (nM), VEGF HUVEC proliferation assay (VEGF [18]): 1.54 nM
B2: VEGFBII037 (VHH)
VHH: DVQLVESGGGLVQPGGSLRLSCAASGRTFSSYSMGWFRQAPGKEREFVVAISKGGYKYDAVSLEGRFTISRDNAKNTVYLQMNSLRPEDTAVYYCASSRAYGSSRLRLADTYEYWGQGTLVTVSS
notes: also called VEGFBII0037

IC50 (read off the curve) (hAng2): ~20 pM
IC50 (read off the curve) (mAng2): ~30 pM
B3: ANGBII00002 (VHH)
bivalent VHH: EVQLVESGGGLVQAGGSLRLSCAASGFTFDDYALGWFRQAAGKEREGVSCIRCSDGSTYYADSVKGRFTISSDNAKNTVYLQMNSLKPEDTAVYYCAASIVPRSKLEPYEYDAWGQGTLVTVSSGGGGSGGGGSGGGGSGGGGSGGGGSGGGGSGGGGSGGGGSEVQLVESGGGLVQAGGSLRLSCAASGFTFDDYALGWFRQAAGKEREGVSCIRCSDGSTYYADSVKGRFTISSDNAKNTVYLQMNSLKPEDTAVYYCAASIVPRSKLEPYEYDAWGQGTLVTVSS
notes: homodimeric anti-Ang2 VHH; also called 1D01-40gs-1D01
